In article PMC3651894 (Cell, 2013):

Assays:
[1] = biological target: F-DicerΔ3 mutant lacking the DUF283 domain (human); experiment: co-IP
[2] = biological target: F-DicerΔN1 lacking a part of the DEAD-box RNA helicase domain (human); experiment: co-IP
[3] = biological target: T1, full-length FLAG-tagged Dicer (F-Dicer), baculovirus/Sf9 (human, UniProt Q9UPY3 1-1922); experiment: SEC
[4] = biological target: T1, full-length FLAG-tagged Dicer …; experiment: pull-down + co-IP

T1 sequence (Q9UPY3 whole entry): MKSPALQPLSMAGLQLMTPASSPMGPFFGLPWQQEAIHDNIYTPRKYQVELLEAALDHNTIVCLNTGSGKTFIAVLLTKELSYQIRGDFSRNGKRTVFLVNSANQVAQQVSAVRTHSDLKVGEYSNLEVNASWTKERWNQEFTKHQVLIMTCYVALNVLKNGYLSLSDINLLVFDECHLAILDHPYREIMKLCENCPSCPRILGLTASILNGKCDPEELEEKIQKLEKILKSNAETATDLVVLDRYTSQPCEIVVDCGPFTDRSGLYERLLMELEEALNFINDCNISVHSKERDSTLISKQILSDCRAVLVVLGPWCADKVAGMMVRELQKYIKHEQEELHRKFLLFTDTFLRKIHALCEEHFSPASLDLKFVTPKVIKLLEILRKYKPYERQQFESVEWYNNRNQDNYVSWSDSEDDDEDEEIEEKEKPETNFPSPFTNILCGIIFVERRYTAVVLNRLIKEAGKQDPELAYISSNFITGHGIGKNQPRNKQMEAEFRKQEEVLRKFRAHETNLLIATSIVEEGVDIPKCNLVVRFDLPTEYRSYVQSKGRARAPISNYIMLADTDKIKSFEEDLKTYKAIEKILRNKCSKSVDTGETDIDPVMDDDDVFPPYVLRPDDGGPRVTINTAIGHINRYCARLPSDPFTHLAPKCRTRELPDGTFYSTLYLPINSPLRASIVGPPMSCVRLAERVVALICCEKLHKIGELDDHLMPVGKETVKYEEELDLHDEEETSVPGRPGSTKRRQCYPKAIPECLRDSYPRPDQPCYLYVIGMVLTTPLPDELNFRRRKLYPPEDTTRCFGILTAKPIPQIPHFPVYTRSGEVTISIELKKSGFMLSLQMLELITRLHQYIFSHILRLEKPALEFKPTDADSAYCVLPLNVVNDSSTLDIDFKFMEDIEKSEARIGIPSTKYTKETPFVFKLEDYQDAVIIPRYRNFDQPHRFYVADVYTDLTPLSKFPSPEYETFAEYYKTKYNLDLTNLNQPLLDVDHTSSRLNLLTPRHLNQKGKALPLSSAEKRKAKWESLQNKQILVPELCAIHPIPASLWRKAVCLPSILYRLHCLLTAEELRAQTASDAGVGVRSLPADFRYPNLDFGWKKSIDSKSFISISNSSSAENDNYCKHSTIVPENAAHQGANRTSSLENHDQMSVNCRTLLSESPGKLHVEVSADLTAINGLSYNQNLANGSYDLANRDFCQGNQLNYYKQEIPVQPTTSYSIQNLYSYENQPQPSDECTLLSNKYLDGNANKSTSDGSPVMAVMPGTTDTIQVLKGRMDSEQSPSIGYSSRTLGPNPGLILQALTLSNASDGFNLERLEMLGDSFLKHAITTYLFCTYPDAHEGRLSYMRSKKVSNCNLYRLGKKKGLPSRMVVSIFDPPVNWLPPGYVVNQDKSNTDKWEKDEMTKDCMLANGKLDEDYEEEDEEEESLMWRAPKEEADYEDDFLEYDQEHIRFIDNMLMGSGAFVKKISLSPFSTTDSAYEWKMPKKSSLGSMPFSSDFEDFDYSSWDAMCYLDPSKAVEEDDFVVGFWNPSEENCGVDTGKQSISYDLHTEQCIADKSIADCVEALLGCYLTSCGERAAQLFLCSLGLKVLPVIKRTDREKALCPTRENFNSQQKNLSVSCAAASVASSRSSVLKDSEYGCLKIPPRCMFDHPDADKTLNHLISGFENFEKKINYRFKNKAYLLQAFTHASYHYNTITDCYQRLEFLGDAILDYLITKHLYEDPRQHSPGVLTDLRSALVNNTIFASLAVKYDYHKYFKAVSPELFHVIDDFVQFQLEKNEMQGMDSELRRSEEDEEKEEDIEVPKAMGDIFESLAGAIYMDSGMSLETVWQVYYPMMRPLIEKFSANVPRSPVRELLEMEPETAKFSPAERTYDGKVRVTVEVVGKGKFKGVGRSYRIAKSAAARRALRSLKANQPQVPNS
Chain of F-DicerΔ3 mutant lacking the DUF283 domain (human) (Q9UPY3 whole entry, stated change not applied, the tested form may be a part): as the sequence (Q9UPY3 whole entry) above
Chain of F-DicerΔN1 lacking a part of the DEAD-box RNA helicase domain (human) (Q9UPY3 whole entry, stated change not applied, the tested form may be a part): as the sequence (Q9UPY3 whole entry) above

B1: full-length HAT (histidine affinity tag)-tagged ADAR1p110 (H-ADAR1p110), baculovirus/Sf9 (natural protein, human, UniProt P55265-5 1-931, looked up)
chain: MAEIKEKICDYLFNVSDSSALNLAKNIGLTKARDINAVLIDMERQGDVYRQGTTPPIWHLTDKKRERMQIKRNTNSVPETAPAAIPETKRNAEFLTCNIPTSNASNNMVTTEKVENGQEPVIKLENRQEARPEPARLKPPVHYNGPSKAGYVDFENGQWATDDIPDDLNSIRAAPGEFRAIMEMPSFYSHGLPRCSPYKKLTECQLKNPISGLLEYAQFASQTCEFNMIEQSGPPHEPRFKFQVVINGREFPPAEAGSKKVAKQDAAMKAMTILLEEAKAKDSGKSEESSHYSTEKESEKTAESQTPTPSATSFFSGKSPVTTLLECMHKLGNSCEFRLLSKEGPAHEPKFQYCVAVGAQTFPSVSAPSKKVAKQMAAEEAMKALHGEATNSMASDNQPEGMISESLDNLESMMPNKVRKIGELVRYLNTNPVGGLLEYARSHGFAAEFKLVDQSGPPHEPKFVYQAKVGGRWFPAVCAHSKKQGKQEAADAALRVLIGENEKAERMGFTEVTPVTGASLRRTMLLLSRSPEAQPKTLPLTGSTFHDQIAMLSHRCFNTLTNSFQPSLLGRKILAAIIMKKDSEDMGVVVSLGTGNRCVKGDSLSLKGETVNDCHAEIISRRGFIRFLYSELMKYNSQTAKDSIFEPAKGGEKLQIKKTVSFHLYISTAPCGDGALFDKSCSDRAMESTESRHYPVFENPKQGKLRTKVENGEGTIPVESSDIVPTWDGIRLGERLRTMSCSDKILRWNVLGLQGALLTHFLQPIYLKSVTLGYLFSQGHLTRAICCRVTRDGSAFEDGLRHPFIVNHPKVGRVSIYDSKRQSGKTKETSVNWCLADGYDLEILDGTRGTVDGPRNELSRVSKKNIFLLFKKLCSFRYRRDLLRLSYGEAKKAARDYETAKNYFKKGLKDMGYGNWISKPQEEKNFYLCPV
B1 was tested, and the fold reduction of interaction against full-length F-Dicer [1] was under 4 fold, the fold reduction of interaction against full-length F-Dicer [2] was under 4 fold and the “stoichiometry N” value [3] was 1 ADAR1 per Dicer. For the same binder, the “stoichiometry N” value [4] was about 1 ADAR1 per Dicer.
